Consider 1 molecule from US20080300188A1 (GENEXINE, published 2008).

The target of experiment [1] is T1, C1q (AbD serotech, Cat#. 2221-5504) (UniProt P02745 23-245; P02746 28-253; P02747 29-245).
T1 construct: Bought C1q, added at 2 ug/ml
Put plainly: ELISA, sample coated on strip, C1q added, detected with HRP conjugated anti-C1q. The protocol: (§1) To investigate whether hFc-5-fused proteins bind to FcγRI and C1q, MabThera® (Rituximab, Roche), hIgG1 (Calbiochem, Cat#, 400120), Enbrel® (etanercept, Amgen), EPO-hFc-5, G-CSF-hFc-5 and p40N303Q-hFc-5 were serially diluted (from 2 ug/ml to 16 ng/ml with 2-fold) and coated on the 8 well strip (COSTAR, New York) overnight at 4° C. To make a standard curve, FcγRI (R&D, cat# BAF1257) or C1q (AbD serotech, Cat#. 2221-5504) were also serially diluted (from 2 ug/ml to 32 ng/ml with 2-fold) and coated on the 8 well strip (COSTAR, New York) overnight at 4° C. After washing each strip of samples with washing buffer (PBS containing 0.05% tween) and blocking with 10% FBS in PBS for 1 hour at RT, FcγRI or C1q were added into each well at 2 ug/ml following incubation for 2 hours at room temperature (RT). All strips were washed with washing buffer. For C1q binding test, HRP conjugated anti-C1q (AbD serotech, cat#. 2221-5004P) was added into each well at 2.5 ug/ml following 30 min incubation at RT under dark condition. For FcγRI binding test, biotinylated anti-FcγRI (R&D, cat#. 1257-FC) was added into each well at 2 ug/ml following 1 hour incubation at RT. After washing them with washing buffer, Streptavidine-HRP (BD, cat#. 554066) diluted with 3,000 fold was added into each strip following 30 minute incubation at RT under dark condition. […]
In general terms: ELISA stands for enzyme-linked immunosorbent assay.

Experiment [2] concerns the target T2, FcγRI (R&D, cat# BAF1257) (UniProt P12314 16-288, limits assumed).
T2 construct: Bought soluble reagent, added at 2 ug/ml; also called FcγR1
Put plainly: ELISA, sample coated on strip, FcγRI added, detected with biotinylated anti-FcγRI and streptavidin-HRP. The procedure: as §1

T2 sequence (P12314 16-288 limits assumed): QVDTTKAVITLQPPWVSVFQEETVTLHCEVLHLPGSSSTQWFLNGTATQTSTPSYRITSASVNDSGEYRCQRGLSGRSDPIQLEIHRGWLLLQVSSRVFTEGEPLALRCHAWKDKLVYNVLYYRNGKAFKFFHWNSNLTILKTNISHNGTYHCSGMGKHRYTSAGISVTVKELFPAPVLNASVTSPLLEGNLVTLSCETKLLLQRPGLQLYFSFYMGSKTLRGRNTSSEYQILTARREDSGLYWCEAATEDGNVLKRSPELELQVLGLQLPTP
T1 sequence (P02745 23-245 limits assumed, chain 1 of 3): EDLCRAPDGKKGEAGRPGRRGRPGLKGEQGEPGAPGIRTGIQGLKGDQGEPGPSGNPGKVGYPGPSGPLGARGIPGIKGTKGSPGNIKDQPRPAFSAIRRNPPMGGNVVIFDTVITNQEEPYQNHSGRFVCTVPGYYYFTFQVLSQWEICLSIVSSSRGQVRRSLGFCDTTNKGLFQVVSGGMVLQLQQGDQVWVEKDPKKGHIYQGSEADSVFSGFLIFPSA
T1 sequence (P02746 28-253 limits assumed, chain 2 of 3): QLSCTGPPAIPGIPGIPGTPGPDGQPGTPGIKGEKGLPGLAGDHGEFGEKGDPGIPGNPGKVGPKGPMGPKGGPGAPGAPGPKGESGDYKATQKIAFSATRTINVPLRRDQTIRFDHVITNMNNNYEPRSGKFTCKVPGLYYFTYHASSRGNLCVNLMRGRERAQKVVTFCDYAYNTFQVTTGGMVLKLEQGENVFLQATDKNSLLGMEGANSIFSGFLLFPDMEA
T1 sequence (P02747 29-245 limits assumed, chain 3 of 3): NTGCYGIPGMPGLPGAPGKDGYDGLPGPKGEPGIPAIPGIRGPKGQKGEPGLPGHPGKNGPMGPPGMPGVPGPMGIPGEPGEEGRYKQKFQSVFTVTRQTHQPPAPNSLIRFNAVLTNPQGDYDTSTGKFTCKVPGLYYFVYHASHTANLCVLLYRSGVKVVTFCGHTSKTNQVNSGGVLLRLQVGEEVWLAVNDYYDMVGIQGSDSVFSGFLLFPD

B1: p40N303Q-hFc-5 (Fc fusion)
chain: IWELKKDVYVVELDWYPDAPGEMVVLTCDTPEEDGITWTLDQSSEVLGSGKTLTIQVKEFGDAGQYTCHKGGEVLSHSLLLLHKKEDGIWSTDILKDQKEPKNKTFLRCEAKNYSGRFTCWWLTTISTDLTFSVKSSRGSSDPQGVTCGAATLSAERVRGDNKEYEYSVECQEDSACPAAEESLPIEVMVDAVHKLKYENYTSSFFIRDIIKPDPPKNLQLKPLKNSRQVEVSWEYPDTWSTPHSYFSLTFCVQVQGKSKREKKDRVFTDKTSATVICRKQASISVRAQDRYYSSSWSEWASVPCSRNTGRGGEEKKKEKEKEEQEERETKTPECPSHTQPLGVFLFPPKPKDTLMISRTPEVTCVVVDVSQEDPEVQFNWYVDGVEVHNAKTKPREEQFNSTYRVVSVLTVLHQDWLNGKEYKCKVSNKGLPSSIEKTISKAKGQPREPQVYTLPPSQEEMTKNQVSLTCLVKGFYPSDIAVEWESNGQPENNYKTTPPVLDSDGSFFLYSRLTVDKSRWQEGNVFSCSVMHEALHNHYTQKSLSLSLGK
notes: also called human p40N303Q-hFc-5
Regarding B1, the binding result in experiment [1] and in experiment [2] was “no binding” throughout.
